The data set is described as follows: yeast display, Sf9 membrane polyspecificity reagent, FACS + sequencing; frameworks hold sequencing errors. The essentials:
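Galactose induction of a Saccharomyces cerevisiae BJ5465 synthetic nanobody display library ran 36–48 hours. The cells were then stained for 1 hour at 4 °C with 10% biotinylated, detergent-solubilized Sf9 membrane reagent, pulled down on streptavidin microbeads and FACS-sorted into low and high (top ~1%) gates on expression and reagent-binding fluorescence. Labels for polyreactivity follow the gate of origin.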
Consider “QVQLEESGGGLVQAGGSLRLSCAASGGIFGWYTMGWNRQAPGKERELVAAINFSGSRTYYADSVKGRFTISRHNAKNTVYLQMNSLKPEDTAVYYCNAVYHQFRVEYWGQGTQVTVSS”, for which the “polyreactivity (PSR sort gate)” value is on record as “high polyreactivity”.

As to “QVQLVESGAGLVQAGGSLRLSCAASGFTFSRNAMGWYRPAPGKERELVASISGRGGRTYYADSVKGRFTISRDNAKKTVYLQMNSLKPEATAVYFCAARWRQRKSVRYGQQGYDYWGQGTQVTVSS”, the “polyreactivity (PSR sort gate)” value is given as “high polyreactivity”.

As for “QVQLVESGGGLVQAGGSLRLSCAASGSTFDSYAMGWYRQAPGKERELVAAISYNGSSTYYADSVKGRFTISRDNAKNTVYLQMNSLKPEDTAVYYCAAAPGFSAGHHDYWGQGTQVTVSS”, the “polyreactivity (PSR sort gate)” value is listed as “low polyreactivity”.

As to “QVQLVESGVGLVQAGGSLRLSCAASGFTFTRYAMGWYRQAPGKERELVAAISWTGGSTYYADSVKGRFTISRDNAKNTVYLQMNSLKPEDTAVYYCAGRFNYQWSKFGYWGQGTQVTVSS”, the “polyreactivity (PSR sort gate)” value is reported as “high polyreactivity”.

For “QVQLVESGGGLVQAGGSLRLSCAASGLTFPGYVMGWYRQAPGKERELVAAITNGGRTYYADSVKGRFTISRDNAMNTVYLQMNSLKPEDTAVYYCNTARGSKDPPHYYWGQGTQVTVSS”, the “polyreactivity (PSR sort gate)” value is reported as “high polyreactivity”.

As to “QVQLVDSGGGLVQAGGSLRLSCAASGRTSYYNTMGWYRQAPGKERELVAAITGRGDSTYYADSVKGRFTISRDNAKNTVYLQMNSLKPEDTAVYYCAADELHLLYRVSKFVDYNHWGQGTQVTVSS”, the “polyreactivity (PSR sort gate)” value is recorded as “low polyreactivity”.

In the case of “QVQLVESGGGLVQAGGSLRLSCAASGSIFFLYAMGWYRQAPGKERELVAAISRDGRTNYADSVKGRFTISRDNAKNTVYLQMNSLKPEDTAVYYCAKDGNHPGAVVYGYWGQRTQVTVSS”, the “polyreactivity (PSR sort gate)” value is reported as “low polyreactivity”.

“QVQLVESGVGLVQAGGSLRLSCAASGSTFKGYTMGWYRQAPGKERELVAAITYSGGRTYYADSVKGRFTISRDNAKNTVYLQMNSLKPEDTAVYYCAARQQWVKVEYDYWGQGTQVTVSS”: the “polyreactivity (PSR sort gate)” value was “high polyreactivity”.

Consider “QVQLVESGGGLVQAGGSLRLSCADSGRIFSWNAMGRYRQAPRKERELVAAISSSGARTYYADSVKGRFTISRDNAKNTVYLQMNSLKPEDTAVYYCIAARSSQHYYSYNYWGQGTQVTVSS”, for which the “polyreactivity (PSR sort gate)” value is given as “high polyreactivity”.

“QVQLVESGGGLVQAGGSLRLSCAASGSTLFWNAIGWYRQAPGKERELVAVISFSGVSTYYADSVKGRFTISRDNAKNTVYLQMNSLKPEDTAVYYCAAEVPHWPYYGRLHDRDYWGQGTQVTVSS”: the “polyreactivity (PSR sort gate)” value is recorded as “low polyreactivity”.

As to “QVQHVESGGGLVQAGGSLRLSCAASGRTFITYAMGWYRQGPGKERELVATISGGGGTNYADSVKGRFTISRDNAKNTVYLQMNSLKPEDTAVYYCNKRAWYVYTHFDYWGLGTQVTVSS”, the “polyreactivity (PSR sort gate)” value is “low polyreactivity”.

For “QVQLVESGGGLVQAGGSLRLSCAASGSTFITYAMGWYRQAPGKERELVAAISWSGVGTYYADSVKGRFTISRDNAKNTVYLQMNSLKPEDTAVYYCAVDRIYYYTYGVYYWGQGTQVTVSS”, the “polyreactivity (PSR sort gate)” value is on record as “high polyreactivity”.

As for “QVQLVESGGGLVLAGGSLRLSCAASGRIFRGYAMGWYRQAPGKERELVAGITWGAGRTYYADSVKGRFTISRDNAKNTVYLQMNSLKPEDTAVYYCAAYYSQDSRRKYDYWGQGTQVSVSS”, the “polyreactivity (PSR sort gate)” value is “high polyreactivity”.

As for “QVQLVESGGGLVQAGGSLRLSCAASGSIFFPYAMGWYIQAPGKERELVAAITGSTGSTYYADSVKGRFTISRDNAKNTVYLQMNSLKPEDTAVYYCAAAEYFVSGGIMDYWGQGTQVTVSS”, the “polyreactivity (PSR sort gate)” value is “high polyreactivity”.

Turning to “QVQLVESGGGLVQAGGSLRFSCAASGRIFSGNGMGWYRQAPGKEREFVAAIRFSSGSTYYADSVKGRFTISRDNAKNTVYLQMNSLKPEDTAVYYCARPSIPRRYDYWGQGTQVTVSS”, the “polyreactivity (PSR sort gate)” value was “high polyreactivity”.

In the case of “QVQLVESGGGLVQAGGSLRLSCAAYGIIFTDYAMGWYRQAPGKERELVAANSSGGGSTYYADSVKGRFTISRDNAKNTVYLQMNSLKPEDTAVYYFAAQSSGSYGFDHWGQGTQVTVSS”, the “polyreactivity (PSR sort gate)” value is “high polyreactivity”.

Turning to “QVQLVESGGGLVQAGGSLRLSCAASGGILPKYAMGWYRQAPGKERELVAAIDGGADSTYYADSVKGRFTISRDIAKNTVYLQLNSLKPEDTAVYFCGADGSLHAGHWRTYGYYYWGQGTQVTVSS”, the “polyreactivity (PSR sort gate)” value was “low polyreactivity”.

With “QVQLVESGGGLVQAGGSLRLSCAASGIILYRNGMGWYRQAPGKERELVAASSWSTGSTYYADSVKGRFTISRDNAKNTVYLQMNSLKPEDTAVYYCATDYVGYSFGMYYWGQGTQVTVSS”, the “polyreactivity (PSR sort gate)” value is recorded as “low polyreactivity”.

“QVQLVESGGGLVQAGGSLRLSCAASGIIFVDNDMGWYRQAPGKERELVADISDSGGSTNYADSVKGRFTISRDNAKNTVYLQMNSLKPEDTAVYYCAADSADPTEYDYWGQGTQVSVSS”: the “polyreactivity (PSR sort gate)” value is given as “low polyreactivity”.

As for “QGHLRESGGGLVQAGGSLRLTCAASGSNLWQYAMGWYRQATGKERELVAAITYSGGSTHYADSVKGRFTISRDNAKNTVYLQLNSLKPEDTAVYYCAAGSWYRYAALRYDHWGQGTQVTVST”, the “polyreactivity (PSR sort gate)” value was “low polyreactivity”.

In the case of “QVQLVESGGGLVQAGGSLRLSCAASGFTFNAHAMGWYRQAPGKERELVAVITRSGGRTYYADSVKGRFTISRDNAKNTVYLQMNSLKPEDTAVYYCAKEGPSRVYQGTDSASDYWGQGTQVTVSS”, the “polyreactivity (PSR sort gate)” value is recorded as “high polyreactivity”.

With “QVQLVESGGGLVQAGGSLRLSCAASGSIFRIYAMGWYRQAPGKERELVAAIRNSGRTYYADSVKGRFTISRDNAKNTVYLQMNSLKPEDTAVYYCAAVGGRLRGDRGGYWGQGTQVTVSS”, the “polyreactivity (PSR sort gate)” value was “high polyreactivity”.

In the case of “QVQLVESGAGLVQAGGSLRLICAASGLTFIYYAMGWYRQAPGKERELVAAISVSGGSTYYADSVKGRFTISRDNAKNTVYLQMNRLQREDTAVYYCAADWLVHKPRYQYSFDFWGQVTQVTVSS”, the “polyreactivity (PSR sort gate)” value is “low polyreactivity”.

“QVQLVESGGGLVQAGGSLRLSCAASGRIFRRNTMGWSRQAPGKERELVAAITSSGGSTYADSVKGRFTISRDNAKKTVYLQMNSLKPEDTAVYYCATYVAYHRGYRTYDHWGQGTQVTVSS”: the “polyreactivity (PSR sort gate)” value was “low polyreactivity”.

In the case of “QVQLVESGGGLVQAGGSLRLSCAASGLIFYYYAMGWYRQAPGKERELVADIDRGGDTYYADSVKGRFTISRDNAKNTVYLQMNSLKPEDTAVYYGAAVDFYGYVPEFGYWGQGTQVTVSS”, the “polyreactivity (PSR sort gate)” value is “low polyreactivity”.

For “QVQLVESGGGLVQAGGSLRLSCAASGLTFTYYAMGWYRQAPGKERELVAAISWSGGSTYYADSVKGRFTISRDNAKNTVYLQMNSLKPEDTAVYYCAAATAYYRYRGGYDYWGQGTQVTVSS”, the “polyreactivity (PSR sort gate)” value is “high polyreactivity”.

With “QVQLVESGGGLVQAGGSLRLSCAASGSIFLTYAMGWYRQAPGKERELVAAISSSVGSTNYADSVKGRFTISRDNAKNTVYLQMNSLKPEDTAVYYCNATGVQYFLYGYWGQGTQVTVSS”, the “polyreactivity (PSR sort gate)” value is on record as “low polyreactivity”.

With “QVQLVESGGGLVQAGGSLRLSCAASGRIFFWYVMGWYRQAPGKERELVAAISSGGRTYYADSVKGRFTISRDNAKNTVYLQMNSLKPEDTAVYYCNVEEYHVRADIGYSNYGYWGQGTQVTVSS”, the “polyreactivity (PSR sort gate)” value is “low polyreactivity”.

“QVQLVESGGGLVQAGGSLRLSCAASGSTFDYNAMGWYRQAPGKERELVAAISRGGNTDYADSVKGRFTISRDNAKNSVYLQMNSLKPEDTAVYYCAADALLEWFDVAYFAYEYWGQGTQVTVSS”: the “polyreactivity (PSR sort gate)” value is on record as “low polyreactivity”.

On to “QVQLLETGGGLVQAGGSLRLSFAASGSIFYRYSMVWYRQAPGKERELVAAISYSGGSTYYADSVKGRFTISRDNAKNTVYLQMNSLKPEDTAVYYCAKDYPPPISDYSRYYGYGYWGQGTQVTVSS”, for which the “polyreactivity (PSR sort gate)” value was “low polyreactivity”.

Take “QVQLVESGGGLVQAGGSLRLSCDASGITFDDYSRGWYRQAPGKERELVAAISGSGGSTYYADSVKGRFTISRDNAKNTVFLQMHSLKPEDTAVYYCAASGPEGQYLWYDYWGKGTQVTVSS”: the “polyreactivity (PSR sort gate)” value was “high polyreactivity”.

In the case of “QVQLVESGGGLVQAGGSLRLSCAASGFTFNRNAMGWYRQAPGKERELVAAISRGGSTSYADSVKGRFTISRDNAKNTVYLQMNSLKPEDTAVYYCATYFRVYYSQYDYWGQGTQVTVTS”, the “polyreactivity (PSR sort gate)” value is reported as “high polyreactivity”.

Turning to “QVQLVESGGGLVQAGGSLRLSCAASGRIQDINAMGWYRQAPGKERELVAAISYGGGTTYYADSVKGRFTISRDNAKNTVYLQMNSLKPEDTAVYYCAKDGYFPEFDYWGQGTQVTVSS”, the “polyreactivity (PSR sort gate)” value is on record as “high polyreactivity”.

Regarding “QVQLVESGGGLVQAGGSLRLSFAASGLTFHYYAMGWYIQEPGKERELVAVISSGGSTYYAYSVKGRFTISRDNAKNTVYLQMNSLKPEDTAVYYCAALSSRTYKTGYYTYDYWGQGTQVTVSS”, the “polyreactivity (PSR sort gate)” value is on record as “low polyreactivity”.

Regarding “QVQLVESGGGLVQAGGSLRLSCAASGSTFTRNAMGWYRQAPGKERELVAAITSSGGSTYYADSVKGRFTISRDNAKNTVYLQMNSLKPEDTAVYYCAAYPHRPRDRELDHWGQGTQVTVSS”, the “polyreactivity (PSR sort gate)” value is “low polyreactivity”.

For the sequence “QVQLVESGGGLVQAGGSLRLSCAASGFISTINVMGCYRQAPGKERELVAAITYIDGSTFYADSVKGRFTISRDNAKNTVYFQMNSLKPEDTAVYYCASDLYLWGAVFLYVRSTGLDYWGQGTQVTVSS”, the “polyreactivity (PSR sort gate)” value is “low polyreactivity”.

Take “QVQLVESGGGLVQAGGSLRLSCAASGRIFSRYAMGWYRQAPGKERELVAAINKSGGSTYYADSVKGRFTISRDNEKYTVYLQMNSLKPEDTAVDYCNAVYYWYKGDYWGQGTQVTVSS”: the “polyreactivity (PSR sort gate)” value is on record as “high polyreactivity”.

As to “QVQLVESGGGLVQAGGSLRLSCAASGLTLRENAMGWYRQAPGKERELVAAITNGGSTYYADSVKGRFTISRDNAKNTVYLQMNSLKPEDTAVYYCAADNLTYVISWDSDYWGQGTQVTVSS”, the “polyreactivity (PSR sort gate)” value is listed as “low polyreactivity”.

Take “QVKLVESGGGLVQAGGSLRLSCSASGFTFRFYAMGWYIQAPGKERELVASITRSGGSTYYADSVKGRFTISRDNAKNTVYLQMNSLKPEDTAVYYCAAYRCYVSYKEMYYLGQGTQVTVSS”: the “polyreactivity (PSR sort gate)” value is “high polyreactivity”.

As to “QVQLVESGRGLVQAGGSLRLSCAASGSIFPTYALGCYRQAPGKERELVAAISSGENTYYADSVKGRFTISRDNAKNTVSLQMNSLKPEDTAVYFCAAADNYGIRDLYASDGTQNYYWGQGTQVTVSS”, the “polyreactivity (PSR sort gate)” value is given as “low polyreactivity”.
